Measured values as given in the Human Domainome abundance scans (Beltran et al. 2025).

B1: DnaJ homolog subfamily C member 2, residues 451 to 503; numbered along this chain, Q99543 (parent)
chain: SKNWSEDDLQLLIKAVNLFPAGTNSRWEVIANYMNIHSSSGVKRTAKDVIGKA

Variants of: B1
Test: abundance fitness (aPCA) (normalised: wild type 0, dead -1); higher = more abundant; growth selection in yeast, the domain comes from the species named
Conditions: Homo sapiens

Abundance fitness of substitutions, site by site:
Q10: H -0.254 | I -0.212 | K -0.107 | L -0.141 | M -0.34 | N -0.083 | P -0.802 | S -0.163 | T -0.319 | V -0.206 | W -0.706 | Y -0.207
L11: A -0.712 | C -0.403 | D -0.802 | F -0.382 | G -0.819 | I 0.007 | K -0.747 | M -0.229 | P -0.891 | Q -0.632 | R -0.536 | S -0.582 | V -0.37 | Y -0.579
L12: A -0.617 | C -0.667 | D -0.97 | E -0.952 | G -0.779 | I -0.456 | K -0.97 | M -0.223 | N -0.875 | P -0.719 | Q -0.894 | R -0.796 | S -0.802 | T -0.907 | V -0.511 | W -0.177 | Y -0.168
I13: A 0.14 | C -0.147 | D 0.142 | E -0.006 | F 0.039 | G 0.099 | H 0.042 | K 0.053 | L 0.085 | M 0.021 | N -0.097 | P -0.537 | Q 0.131 | R 0.086 | S 0.073 | T -0.141 | V -0.033 | W 0.058 | Y -0.038
K14: A -0.026 | C -0.274 | D -0.054 | E -0.096 | F -0.006 | G -0.243 | H -0.05 | I -0.296 | L -0.317 | M -0.226 | N -0.274 | P -0.971 | Q -0.308 | R -0.088 | S -0.225 | V -0.196 | W -0.602 | Y -0.207
A15: C -0.279 | D -0.777 | E -0.965 | F -0.847 | G -0.182 | H -0.754 | I -0.982 | L -0.61 | M -0.83 | N -0.984 | P -0.724 | Q -1.03 | R -0.994 | S -0.214 | T -0.519 | V -0.511 | W -0.682 | Y -0.688
V16: A -0.164 | C -0.186 | D -0.371 | E -0.042 | G -0.266 | H -0.25 | I 0.08 | K 0.18 | L -0.067 | M 0.065 | N -0.071 | P -1.04 | Q 0.168 | R 0.002 | S -0.054 | W -0.268 | Y -0.028
N17: A -0.085 | D 0.12 | F -0.353 | G -0.082 | H -0.158 | I -0.384 | K -0.043 | L -0.216 | P -0.875 | Q -0.157 | R -0.036 | S -0.061 | T -0.016 | V -0.161 | W -0.348 | Y -0.194
L18: A 0.043 | C -0.222 | D -0.332 | E -0.305 | F -0.219 | G -0.53 | H -0.272 | I -0.073 | K -0.268 | M 0.065 | P -0.807 | Q -0.38 | R -0.145 | S -0.273 | T -0.054 | V -0.108 | W -0.547 | Y -0.173
F19: A -0.536 | C -0.586 | D -0.948 | E -1.06 | H -0.093 | I -0.29 | K -0.961 | L -0.602 | M -0.572 | N -0.803 | P -1.11 | Q -0.86 | R -0.91 | S -0.622 | T -0.456 | V -0.102 | W -0.215 | Y -0.178
P20: A -0.571 | C -0.555 | D -0.13 | E -0.358 | F -0.984 | G -0.103 | H -0.228 | I -0.961 | M -0.955 | N -0.292 | Q -0.328 | R -0.392 | S -0.411 | T -0.607 | V -0.772 | W -0.975
A21: C -0.117 | D -0.039 | E 0.066 | F -0.096 | G -0.122 | H 0.083 | I -0.185 | K -0.018 | L -0.079 | M 0.005 | N -0.217 | P -0.094 | Q 0.049 | R -0.054 | S -0.029 | T -0.016 | V -0.142 | W -0.244 | Y -0.265
G22: A -0.064 | C 0.015 | D -0.016 | E 0.011 | F -0.489 | H -0.166 | I -0.194 | K -0.146 | L -0.484 | M -0.371 | P -0.217 | Q -0.293 | R -0.098 | S 0.002 | T -0.065 | V -0.28 | W -0.293 | Y -0.267
T23: A -0.267 | C -0.353 | D -0.165 | E -0.325 | F 0.038 | G -0.262 | H -0.147 | I -0.226 | K -0.587 | L -0.221 | M -0.221 | P -0.539 | Q -0.162 | R -0.649 | S -0.276 | V -0.302 | Y -0.201
N24: A 0.14 | C -0.166 | D 0.008 | E 0.07 | F -0.101 | G -0.276 | H 0.118 | I -0.09 | K -0.013 | L -0.116 | M -0.056 | P -0.066 | Q -0.112 | R -0.045 | S -0.043 | T -0.024 | V -0.068 | W -0.279
S25: A -0.094 | C -0.04 | D 0.062 | E -0.159 | F -0.272 | G -0.077 | I -0.788 | K -0.003 | L -0.239 | N -0.384 | Q -0.235 | T -0.144 | W -0.219 | Y -0.281
R26: A -0.557 | G -0.74 | H -0.831 | S -0.934 | T -0.52
W27: A -0.114 | C -0.261 | D -0.419 | E -0.168 | F -0.207 | G -0.138 | H -0.537 | I -0.286 | L -0.597 | M -0.323 | N -0.581 | P -0.247 | Q -0.726 | R -0.791 | T -0.475 | V -0.444 | Y -0.299
E28: A -0.278 | C -0.49 | D -0.089 | F -0.376 | G -0.397 | K -0.237 | M -0.44 | N -0.312 | P -0.627 | Q 0.009 | R -0.138 | S -0.013 | T -0.351 | V -0.259 | W -0.592 | Y -0.866
V29: A 0.082 | C -0.071 | D 0.16 | E -0.103 | F -0.32 | G -0.026 | H -0.096 | I -0.127 | K -0.113 | L -0.051 | M 0.078 | N -0.166 | P -0.696 | Q 0.104 | R 0.043 | S 0.01 | T 0.008 | W -0.082 | Y -0.166
I30: A -0.651 | D -0.729 | E -0.955 | F -0.635 | G -0.905 | K -0.873 | L -0.789 | M -0.535
